The results in this text go back to paper PMC5009318, “Structural insights into the IgE mediated responses induced by the allergens Hev b 8 and Zea m 12 in their dimeric forms” (Scientific Reports, 2016).

Values joined by “and” are separate entries in the source; they are usually repeats but may differ in a detail not shown here. Equal entries are not always repeated.

This data set deals with the molecule itself. As to the kind of experiment: SEC; HiLoad 16/60 Superdex 75, 50 mM Tris-HCl pH 7.5; samples incubated 1 week at 4 °C and applied at 10 mg/mL; calibrated with myoglobin, alpha-chymotrypsin and BSA.

B1: recombinant profilin allergen rHev b 8 (isoform Hev b 8.0102) from Hevea brasiliensis (natural protein)
chain: MSWQAYVDDHLMCEIEGNHLSAAAIIGQDGSVWAQSANFPQFKSEEITGIMSDFHEPGTLAPTGLYIGGTKYMVIQGEPGAVIRGKKGPGGVTVKKTNQALIIGIYDEPMTPGQCNMIVERLGDYLIDQGY
notes: Cloned in pET28c; The dimer is held by a disulfide bridge between Cys13 of both chains; also called monomeric rHev b 8; dimeric rHev b 8; source: E. coli Rosetta (DE3), purified (Ni-NTA, enterokinase cleavage, mono Q anion exchange; oligomers separated by SEC)
Turning to B1, the “stoichiometry N” value is 2 and 3 and 4.
